Experimental data taken from the supplement of paper PMC9233669.
Variants at the floor of the assay were thinned out.

Columns and labels:
biotinyl-Leu-oxazolone = test: self-aminoacylation, catalytic enhancement (BLO) (fold over background); higher = more active; k-Seq, kA / k0A0; sequences stand for … in GGGAAUGGAUCCACAUCUACGAAUUC…UUCACUGCAGACUUGACGAAGCUG
Outline: (§1)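 Catalytic enhancement equals the median kA over the uncatalyzed rate, the latter read from the low-activity peak of a bimodal Gaussian fit. Values of kA came from fitting each sequence's fraction reacted to a pseudo-first-order model, with 1000 bootstraps. Reacted RNA was captured with streptavidin and quantified by triplicate qPCR and Illumina sequencing after 90 minutes at room temperature with 2–1250 μM biotinyl-aminoacyl-oxazolone and 0.43 μM mutagenized RNA pools bearing a 21-nt variable region.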

biotinyl-Val-oxazolone = test: self-aminoacylation, catalytic enhancement (BVO) (fold over background); higher = more active; k-Seq, kA / k0A0; sequences stand for … in GGGAAUGGAUCCACAUCUACGAAUUC…UUCACUGCAGACUUGACGAAGCUG
Outline: as §1

biotinyl-Ile-oxazolone = test: self-aminoacylation, catalytic enhancement (BIO) (fold over background); higher = more active; k-Seq, kA / k0A0; sequences stand for … in GGGAAUGGAUCCACAUCUACGAAUUC…UUCACUGCAGACUUGACGAAGCUG
Outline: as §1

biotinyl-Phe-oxazolone = test: self-aminoacylation, catalytic enhancement (BFO) (fold over background); higher = more active; k-Seq, kA / k0A0; sequences stand for … in GGGAAUGGAUCCACAUCUACGAAUUC…UUCACUGCAGACUUGACGAAGCUG
Outline: as §1

biotinyl-Trp-oxazolone = test: self-aminoacylation, catalytic enhancement (BWO) (fold over background); higher = more active; k-Seq, kA / k0A0; sequences stand for … in GGGAAUGGAUCCACAUCUACGAAUUC…UUCACUGCAGACUUGACGAAGCUG
Outline: as §1

biotinyl-Met-oxazolone = test: self-aminoacylation, catalytic enhancement (BMO) (fold over background); higher = more active; k-Seq, kA / k0A0; sequences stand for … in GGGAAUGGAUCCACAUCUACGAAUUC…UUCACUGCAGACUUGACGAAGCUG
Outline: as §1

| Sequence | self-aminoacylation (biotinyl-Leu-oxazolone) | self-aminoacylation (biotinyl-Val-oxazolone) | self-aminoacylation (biotinyl-Ile-oxazolone) | self-aminoacylation (biotinyl-Phe-oxazolone) | self-aminoacylation (biotinyl-Trp-oxazolone) | self-aminoacylation (biotinyl-Met-oxazolone) |
| --- | --- | --- | --- | --- | --- | --- |
| AAUCAUCUAGGUCAUCGGGUG [Fam2.2 aminoacylation ribozyme variant] | 5.48 | 4.6 | 4.54 | 41.3 | 7.01 | 5.64 |
| AAGUGUGCUAAUAAUCGCAAG [Fam3.1 aminoacylation ribozyme variant] | 0.989 | 1.29 | 1.35 | 1.51 | 1.09 | 1.25 |
| AUUCUCCUAGGUCAUCUGGUG [Fam2.2 aminoacylation ribozyme variant] | 5.43 | 2.91 | 3.03 | 30 | 4.16 | 4.5 |
| CCACACUUCAAGCAAUCCGGC [Fam1B.1 aminoacylation ribozyme variant] | 2.88 | 3.66 | 3.02 | 1.71 | 2.1 | 3.54 |
| CUUCACCUAGCUCAUCGGGUG [Fam2.2 aminoacylation ribozyme variant] | 2.43 | 2.37 | 1.76 | 9.04 | 2.82 | 2.21 |
| GUUGCCCUGGUCAUCGAGUGA [Fam2.1 aminoacylation ribozyme variant] | 57.5 | 23.4 | 19.1 | 382 | 58.8 | 54.2 |
| CCACACUUUAAGCAAUCGCUC [Fam1B.1 aminoacylation ribozyme variant] | 0.897 | 1.08 | 0.99 | 0.598 | 1.2 | 1.1 |
| AUUACCCUGGUCAUCCAGUGA [Fam2.1 aminoacylation ribozyme variant] | 5.76 | 3.42 | 3.41 | 28.1 | 6.71 | 5.67 |
| AUUUCCCUGGUCACCGAGUGA [Fam2.1 aminoacylation ribozyme variant] | 8.24 | 4.43 | 3.79 | 66.2 | 9.27 | 8.77 |
| AUACACCUAGGACAUCGGGUG [Fam2.2 aminoacylation ribozyme variant] | 2.82 | 2.79 | 2.73 | 14.1 | 5.32 | 2.98 |
| AUUCAUCUAGGUCAUCGGGGG [Fam2.2 aminoacylation ribozyme variant] | 2.31 | 1.9 | 1.82 | 5.32 | 2.14 | 2.13 |
| GCACACUUCCAGCAAUCGGUC [Fam1B.1 aminoacylation ribozyme variant] | 1.73 | 2.31 | 2.01 | 1.1 | 2.11 | 1.55 |
| ACUGACCUAGGUCAUCGGGUG [Fam2.2 aminoacylation ribozyme variant] | 7.25 | 5 | 4.97 | 32.9 | 7.32 | 6.84 |
| AACUUUCCUAAUAGUCGCAAG [Fam3.1 aminoacylation ribozyme variant] | 1.58 | 1.11 | 1.29 | 2.29 | 1.72 | 1.4 |
| CUACUUCACACGAUCGGUCUG [Fam1A.1 aminoacylation ribozyme variant] | 0.853 | 0.777 | 0.913 | 0.678 | 0.654 | 0.97 |
| CUACUUCAAACAGUCGGUAUG [Fam1A.1 aminoacylation ribozyme variant] | 0.532 | 0.552 | 0.6 | 0.447 | 0.554 | 0.587 |
| AUUACCCGGGUCAGCGAGUGA [Fam2.1 aminoacylation ribozyme variant] | 7.97 | 5.24 | 5.75 | 55.5 | 10.2 | 8.03 |
| AGGUUUGCUAAUAGUCCCAAG [Fam3.1 aminoacylation ribozyme variant] | 0.779 | 0.872 | 0.901 | 4.38 | 1.97 | 0.915 |
| AGUAGCCUGGUCAUCGAGUGA [Fam2.1 aminoacylation ribozyme variant] | 7.91 | 4.85 | 4.84 | 37.9 | 8.44 | 7.32 |
| AUUCAUCUAGGCCAUCGGGUG [Fam2.2 aminoacylation ribozyme variant] | 5.22 | 2.84 | 2.39 | 19 | 3 | 3.38 |
| AAUCACCUAGGACAUCGGGUG [Fam2.2 aminoacylation ribozyme variant] | 3.27 | 3.32 | 3.91 | 19.1 | 5.94 | 4.09 |
| CCACACUUCAAGCAAUCCGUG [Fam1B.1 aminoacylation ribozyme variant] | 5.32 | 2.47 | 2.79 | 26.9 | 2.78 | 3.21 |
| GUACUUCAAACGAUCGGUCUG [Fam1A.1 aminoacylation ribozyme variant] | 1.32 | 1.08 | 1.14 | 1.38 | 1.8 | 1.13 |
| AAUUUUGCUAUUAGUCGCAAG [Fam3.1 aminoacylation ribozyme variant] | 1.89 | 1.63 | 1.98 | 2.76 | 1.85 | 1.71 |
| AUUCACCAAGGUCAUCGGGUG [Fam2.2 aminoacylation ribozyme variant] | 12.3 | 5.71 | 5.52 | 75.8 | 8.61 | 9.68 |
| AUUAACCUAGGUUAUCGGGUG [Fam2.2 aminoacylation ribozyme variant] | 3.46 | 2.19 | 2.5 | 17.9 | 2.84 | 3.1 |
